From article doi:10.1101/2025.06.12.659319

T1: ΔNp63α (RLuc- and YFP-fusions, full length) (human), Q9H3D4
T1 chain: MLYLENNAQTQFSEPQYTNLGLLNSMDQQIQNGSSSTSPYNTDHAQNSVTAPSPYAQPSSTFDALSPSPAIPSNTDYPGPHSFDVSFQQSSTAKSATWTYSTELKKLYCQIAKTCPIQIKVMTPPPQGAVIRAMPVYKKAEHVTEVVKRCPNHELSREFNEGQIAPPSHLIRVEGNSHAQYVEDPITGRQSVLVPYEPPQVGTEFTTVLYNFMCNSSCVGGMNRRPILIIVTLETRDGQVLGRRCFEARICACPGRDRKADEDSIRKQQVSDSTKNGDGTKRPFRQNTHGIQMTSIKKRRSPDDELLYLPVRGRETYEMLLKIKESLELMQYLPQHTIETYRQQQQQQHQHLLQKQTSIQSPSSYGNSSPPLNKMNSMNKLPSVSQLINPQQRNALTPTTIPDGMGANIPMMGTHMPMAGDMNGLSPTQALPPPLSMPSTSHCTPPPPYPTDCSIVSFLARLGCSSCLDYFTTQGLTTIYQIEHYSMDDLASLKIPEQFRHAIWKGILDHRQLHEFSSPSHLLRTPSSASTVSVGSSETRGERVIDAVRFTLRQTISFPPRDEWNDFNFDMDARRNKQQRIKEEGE


Tests used:
[1] = target: FITC-ΔNp63α NLSbip peptide (residues 278-302) (human); assay: fluorescence polarisation
[2] = target: T1, ΔNp63α (RLuc- and YFP-fusions, full …); assay: FRET or BRET; details: remark: other sources report otherwise

Molecule	Kd [1] [nM]	BRET ratio [2]
human IMPα1ΔIBB (importin α1 lacking the IMPβ1 binding domain) (domain or fragment)	4.3	–
human IMPα3ΔIBB (importin α3 lacking the IMPβ1 binding domain) (domain or fragment)	6.7	–

Continued, values first:

Kd [1] [nM]	BRET ratio [2]	Molecule
4.6	–	human IMPα7ΔIBB (importin α7 lacking the IMPβ1 binding domain) (domain or fragment)
–	0.18	ΔNp63α (RLuc- and YFP-fusions, full length), Q9H3D4-2 1-586 (natural protein) MLYLENNAQTQFSEPQYTNLGLLNSMDQQIQNGSSSTSPYNTDHAQNSVTAPSPYAQPSSTFDALSPSPAIPSNTDYPGPHSFDVSFQQSSTAKSATWTYSTELKKLYCQIAKTCPIQIKVMTPPPQGAVIRAMPVYKKAEHVTEVVKRCPNHELSREFNEGQIAPPSHLIRVEGNSHAQYVEDPITGRQSVLVPYEPPQVGTEFTTVLYNFMCNSSCVGGMNRRPILIIVTLETRDGQVLGRRCFEARICACPGRDRKADEDSIRKQQVSDSTKNGDGTKRPFRQNTHGIQMTSIKKRRSPDDELLYLPVRGRETYEMLLKIKESLELMQYLPQHTIETYRQQQQQQHQHLLQKQTSIQSPSSYGNSSPPLNKMNSMNKLPSVSQLINPQQRNALTPTTIPDGMGANIPMMGTHMPMAGDMNGLSPTQALPPPLSMPSTSHCTPPPPYPTDCSIVSFLARLGCSSCLDYFTTQGLTTIYQIEHYSMDDLASLKIPEQFRHAIWKGILDHRQLHEFSSPSHLLRTPSSASTVSVGSSETRGERVIDAVRFTLRQTISFPPRDEWNDFNFDMDARRNKQQRIKEEGE
